Assay: soluble on expression in E. coli; label from the status in PepcDB or PDB records

Sequence | soluble on expression in E. coli
MSLALVVQKYGGSSVADAERIRRVAERIVATKKQGNDVVVVVSAMGDTTDDLLDLAQQVCPAPPPRELDMLLTAGERISNALVAMAIESLGAHARSFTGSQAGVITTGTHGNAKIIDVTPGRLQTALEEGRVVLVAGFQGVSQDTKDVTTLGRGGSDTTAVAMAAALGADVCEIYTDVDGIFSADPRIVRNARKLDTVTFEEMLEMAACGAKVLMLRCVEYARRHNIPVHVRSSYSDRPGTVVVGSIKDVPMEDPILTGVAHDRSEAKVTIVGLPDIPGYAAKVFRAVARRRRQHRHGAAERLQGRGRQDRHHLHLLPQTSGPPPWKNWTRSETRSASTQLLYDDHIGKVSLIGAGMRSHPGVTATFCEALAAVGVNIELISTSEDQRSRCCAATPNWTRPWSRCMKRSGSAATRRPRCTRGRDGRWACQEGHHHHHH | not soluble
AIARGPEPGPQPTMEGDVLDTLEALGYKGPLLEEQALTKAAEGGLSSPEFSELCIWLGSQIKSLCNLEESITSAGRDDLESFQLEISGFLKEMACPYSVLISGDIKDRLKKKEDCLKLLLFLSTELQASQILQNKKHKNSQLDKNSEVYQEVQAMFDTLGIPKSTTSDIPHMLNQVESKVKDILSKVQKNHVGKPLLKMDLNSEQAEQLERINDALSCEYECRRRMLMKRLDVTVQSFGWSDRAKVKTDDIARIYQPKRYALSPKTTITMAHLLAAREDLSKIIRTSSGTSREKTACAINKVGVSFSTVENELMISYLMFLQILVYFSFMSW | soluble
SSYNILSQDLLEDNSHLYRHCRRPVLHWSFRFPNILKEIKHFDADVLCLQEVQEDHYGAEIRPSLESLGYHCEYKMRTGRKPDGCAICFKHSKFSLLSVNPVEFFRPDISLLDRDNVGLVLLLQPKIPYAACPAICVANTHLLYNPRRGDIKLTQLAMLLAEISSVAHQKDGSFCPIVMCGDFNSVPGSPLYSFIKEGKLNYEGLPIGKVSGQEQSSRGQRILSIPIWPPNLGISQNCVYEVQQVPKVEKTDSDLTQTQLKQTEVLVTAEKLSSNLQHHFSLSSVY | soluble
MSLSQPNFYQRTHIPYTAYTPEIFQEFVDDYIDSLNSSFVPVKGIHEEQVRDEAVKLYNQLSDSLGVHRPPFPNPRVKTMVFTPFISMVGVTGSMGPFFCEFTLNGDLLPINYPATYTHELAHLLGISSEAEANFYAYQVCTRSQIKGIRFSGYFSILNHVLGNARRLLSEKEYADIINRIRPEIIELAKKNQEYWMAKYSPLIGDVQNWIYDLYLKGNKIESGRKNYSEVIGLLISYQVWKAKTASDEGHHHHHH | soluble
MGQNDLVKTLRMNYLFDFYQSLLTNKQRNYLELFYLEDYSLSEIADTFNVSRQAVYDNIRRTGDLVEDYEKKLELYQKFEQRREIYDEMKQHLSNPEQIQRYIQQLEDLE | not soluble
GIDPFTMLRPRLCTMKKGPSGYGFNLHSDKSKPGQFIRSVDPDSPAEASGLRAQDRIVEVNGVCMEGKQHGDVVSAIRAGGDETKLLVVDRETDEFFKKCRVIPSQEHLNGPLPVPFTNGEIQKENSREALAEAALESPRPALVRSASSDTSEELNSQDSPPKQDSTAPSSTSSSDPILDFNISLAMAKERAHQKRSSKRAPQMDWSKKNELFSNL | soluble
MRTAVIIPFYQREAGILSRALDSVDGQILPEGHSLTVFVIDDESPVSARSEVEGRQGKVPVRLIAQKNGGPGAARNAGLDAVAAEGFDHVAFLDSDDIWQPTHLADALDLLARGYDFHFCDHQRTDDDITYFERTPALRRMREERHAGVTVLDAEAPILAFDQPSIMAASVDTYLSQTSTVVVRQSFVETLRFDPRLRNAGEDQLFWLSLIAAGARTVVSWKMNVLCGRGVNVYFDAFDWKSTKVVDRTGYMLMFFHTVGRRLSLTASDRRTVADRIRRYRRAYSYLFLRALLQGRVPTLSLTWKLAALDPGLVPAMPLRFLAVLPNREAESLQWLEHHHHHH | not soluble
MDGRRLVVRHGADTSVDTVWNILTDTDCWADWGPSVTAVETATRYIDDGTTGRVCVAGAVWLPFEVTACTPYRWTWTVARLPATGHFVEERAGGSVVGFEIPPLATGYAPVCARACQRIATLAQQRDALEHHHHHH | soluble
MARPETEPKTELAKRFREVRRILGFTERKQFAEHLGVTAGSIGTYETGVSEPTASALSKYQEICGVSLDWLVTGNGEMFTDMAKAKAAGFKPQAIPAGLMKRLGHLAYTTYHDAKITLPPEDVAELAAGLYGKLQELIHNINDMEEVEATLPLLKLHLKRQIEVEKAHRAIPGNTANSSD | not soluble
MFLKAGESKTVTIDLDERAFAYWSEKYNDWHVEAGEYAIEVGVSSRDIADTVAVALDGDGKTQPLTEWSTYGEWEADPFGAKIVAAVAAAGEAGELTKLPDNAMMRMFLNPMPINSLPTLLGEGGKKIAQFMVDEYAKLAK | not soluble
MATNESIMTLPLASKFKAEARAMADRGLSTYEAVYQLNKLEEQDKPRADAIMALDESGDYQPLLRAMANVPCIDVGTAKSILSMTIEQERPKVAPELTAAFENFMDMHSPQAVSAGMAYDGRNQGDDGDIDRILKTI | soluble
MPPFMSGLRAVSSLLSCRNAISRKLVSRSGIPRGSFVSDQIRRFGSLSGVERCSSNWLMSNDDARVSFRRLPGSVSLLQRRHFLGCGDGEEGGGELSKIYEERRVLGYTPEQMFNVVAAVDLYHGFVPWCQRSEVLKEYPDGSFDAELEIGFKFLVESYISHVESERPKWIKTTARDTGLFDHLINLWQFKPGPIPGTCDLHFHVDFKFNSPLYRQVASMFFKEVASRLVGAFSDRCRLVYGPGVRVDENAYEQRA | soluble
MAATSSTSSQSFDIELDIIGQQPPLLSIYTQISLVYPVSDPSQYPTIVSTLEEGLKRLSQTFPWVAGQVKTEGISEGNTGTSKIIPYEETPRLVVKDLRDDSSAPTIEGLRKAGFPLEMFDENVVAPRKTLAIGPGNGPNDPKPVLLLQLNFIKGGLILTVNGQHGAMDMTGQDAIIRLLSKACRNESFTEEEISAMNLDRKTVVPLLENYKVGPELDHQIAKPAPAGDAPPAPAKATWAFFSFTPKALSELKDAATKTLDASSKFVSTDDALSAFIWQSTSRVRLARLDASTPTEFCRAVDMRGPMGVSSTYPGLLQNMTYHDSTVAEIANEPLGATASRLRSELNSDRLRRRTQALATYMHGLPDKSSVSLTADANPSSSIMLSSWAKVGCWEYDFGFGLGKPESVRRPRFEPFESLMYFMPKKPDGEFTASISLRDEDMERLKADEEWTKYAKYIG | soluble
MLLNEIPWTIPLTVRLSNGLTHTFASVYEALDFLENEWPLRKGERYERAVRTCRRALNRMTPAAVAREAFIAACLEAGMPLVMAPPAREPQGDTVKAAHTA | not soluble
MARIFTYPLARKRIRMHKPDDKQYDATYFTRWYRDAGLADPARLRRKVALAVAQAEYYLERPIRTVLDVGCGEAAWRAPLLALRPKLQYLGFDSSEYAVQRYGRSRQIHPARFGDFAWLRPCAPVDLLICSDVLHYVPTREFNQGLPGLAEMCAGVAFLETFAEEDAFEGDHEGFQARPARWYRRRFASVGFTALGSHCWLSPQLRGETAALEHS | soluble
QKKTVQVYRIIAKNTIEERVCQVQAEKQELVSKTLVEDVNFFESLTNEELLRLFE | not soluble
MSQLQEMMTVVSQREVAYNIFEMVLKGTLVDEMDLPGQFLHLAVPNGAMLLRRPISISSWDKRAKTCTILYRIGDETTGTYKLSKLESGAKVDVMGPLGNGFPVAEVTSTDKILIIGGGIGVPPLYELAKQLEKTGCQMTILLGFASENVKILENEFSNLKNVTLKIATDDGSYGTKGHVGMLMNEIDFEVDALYTCGAPAMLKAVAKKYDQLERLYISMESRMACGIGACYACVEHDKEDESHALKVCEDGPVFLGKQLSL | soluble
MSLTNKELKKNLEDCVNCRLCYKVCPMMNTFGESPKNILRDIDKNKISYDEIAYSCMLCNACTEACPKDINLKEMFQNLRIKSYRENLKNTSKKFNLKVVQNHQKGSFSKFLTSKNNHKKIKRVFIPGCSLSGYNNEIIFKIKDYLIENLGKVEILLKCCGKPSKDIGNLELFESNLNDIENNLKIKEVDEIIVACENCYKTFGSAFKDIKVITLWEVINEFGVPKELKNKYSDLKEEFALHDPCPIKKEEQIHEAVRSILKDLGIKIVEFEKNRSKTECCGCGGMVGVTNKELWLSQKNKRANSTECENIVSYCESCVNTFKSSDKNALHILDFIFNEDVINGKAKSQKNISTINQWINRIKLANKVGKEGHHHHHH | not soluble
MAHHHHHHMKGNKGANIAYPDKYHKVTEFFDREYGDLETCTKLNDCQKLLFYALRQQVEHGPCTSGAPFIWQVRERAKHDAWKQLGAMTKFEAMVHFVTHLEECIGGNVDWGEKLRDLNGMRDQQRVGVENGTGESNANEQTERGVSEAHWDADVQAHLQPSAENIEYLAREVMRLRGELQQVRPNRVVPTPIVVPPRKPIDYVSTKNIVPPARTLATVATRTALLNAQTTNNLVERQPQGWGEWFGL | not soluble
MSLDVSYSFTPLTGYKDSLVNQHVKLPLNYPTIDNHNPKKSTTPNNEFHKKIATTGKIINLPKQSIVPAVSISVYNDMKTIVLTPMEFQLSSIGFQFQNLIIDLPHSTISTNCITFYYHQDHILIDLIDQNYLFITLKIAIDRFILGGQQLTLDNFEEWGYISVPYSFELRSSPFLLKCLDNLNLIVSLKDGGLLHFKRDEELGEINVFNFQEQGTLIPFLGFFGSGKQKDVVLDGVSSNSIVDALQIGGSGVVITLSVNKVLKLWNLDGHQNLSSLTIASDDNTWLPTIPSKYLKSYDQEDGKTIITLFINTKSGDSSKSMFVFKSFELESSNLHDLSDLSFQPELPNSLLFSSDVFYHESNFQNTIWFIQDYEVVGFGTSQLKYYILWKSNTSSILVEYTINPVNGAILSIEISHPNGFEIDENISAYHDAEYYMDRIFDSGNYDSLIVLTSIKILSQHWEIDNEGHHHHHH | soluble
MGSDKIHHHHHHMKNYKFLVPILLVALLGGSVYKTYSDREKINKQYDNDITQARQNRKLEVYVNAEEDYLDALKLKDSAKLRAELGEMYIEAEDLRTAAKWGESLISEYPKEQVGYEFLIQVYLEQKDYASCFRIKDEADGLKISSKKIEEIISDIKYEYYLEGEYAQVEEFSNGYAAVKKEKKWGYLNSKGHRVIESEFEEAGAFAKEVAPVIDDKGRAFYIDNEGNRKIVIDFVDNIEKLGYMSMDNIFPVNDGKKWSLYSLDSKKKIAGDYDEVSAMGNGVAAVKSDDKWSLIDTKGKKVTKDKYDSVVMDSKGIVCRNDRVFAKQNGYYYLFDSKGNKVVKTKFDDARLFADDGYAAVCVDGKWGFVDKDGKQVIKPQFNEAHSFSNGLAAVRFSNGWGYVDEKGNKVIETGFDDACDFNEQGKTFVKTDDKWQVLTLYLYNHES | not soluble
MGENVLICLCGSVNSINISHYIIELKSKFDEVNVIASTNGRKFINGEILKQFCDNYYDEFEDPFLNHVDIANKHDKIIILPATSNTINKIANGICDNLLLTICHTAFEKLSIFPNMNLRMWENPVTQNNIRLLKDYGVSIYPANISESYELASKTFKKNVVAPEPYKVLEFI | not soluble

— the DeepSol protein solubility set
